From patent publication EP2225268B1 come the findings set out here.

For assay [1], the target named is Wild-type recombinant human NGAL dimer calibrators treated with DTT (human) (UniProt P80188). As to the kind of experiment: … sandwich CMIA, capture HYB 211-01, detection acridinium-HYB 211-02; DTT-treated dimer calibrators against untreated dimer calibrators.
For assay [2], the target named is Wild-type recombinant human NGAL monomer expressed in CHO cells (human) (UniProt P80188). In words: … sandwich CMIA, capture HYB 211-01, detection acridinium-HYB 211-02; calibrator C, NGAL 50 ng/mL.
The target of assay [3] is Wild-type recombinant human NGAL dimer expressed in CHO cells (human) (UniProt P80188). Described as above.
Assay [4] deals with Wild-type recombinant human NGAL dimer calibrators treated with DTT (human) (UniProt P80188). Described as above.
The target is the same in assay [5]. As to the kind of experiment: … sandwich CMIA, capture HYB 211-01, detection acridinium-HYB 211-02; DTT-treated against untreated dimer calibrator; target 600 ng/mL.
For assay [6] the target is unchanged. In words: … sandwich CMIA, capture HYB 211-01, detection acridinium-HYB 211-02; DTT-treated against untreated dimer calibrator; target 50 ng/mL.
The target in assay [7] is Wild-type recombinant human NGAL monomer expressed in CHO cells (human) (UniProt P80188). In words: … sandwich CMIA, capture HYB 211-01, detection acridinium-HYB 211-02; curve fit with monomer calibrators; target 5 ng/mL.
Assay [8] deals with Wild-type recombinant human NGAL dimer expressed in CHO cells (human) (UniProt P80188). The assay is described as above.
Assay [9] deals with Wild-type recombinant human NGAL dimer calibrators treated with DTT (human) (UniProt P80188). The description is as above.
The target in assay [10] is Wild-type recombinant human NGAL monomer expressed in CHO cells (human) (UniProt P80188). As to the kind of experiment: … sandwich CMIA, capture 1-2322-455, detection acridinium-1-903-430; curve fit with monomer calibrators; target 50 ng/mL.
Assay [11] concerns the target Wild-type recombinant human NGAL dimer expressed in CHO cells (human) (UniProt P80188). Described as above.
The target of assay [12] is Wild-type recombinant human NGAL monomer expressed in CHO cells (human) (UniProt P80188). In words: … sandwich CMIA, capture 1-2322-455, detection acridinium-1-903-430; curve fit with monomer calibrators; target 600 ng/mL.
Assay [13] addresses Wild-type recombinant human NGAL dimer expressed in CHO cells (human) (UniProt P80188). The description is as above.
The target in assay [14] is Wild-type recombinant human NGAL monomer expressed in CHO cells (human) (UniProt P80188). As to the kind of experiment: … sandwich CMIA, capture 1-2322-455, detection acridinium-1-903-430; curve fit with monomer calibrators; target 5 ng/mL.
Assay [15] addresses Wild-type recombinant human NGAL dimer expressed in CHO cells (human) (UniProt P80188). Described as above.
For assay [16], the target named is Wild-type recombinant human NGAL monomer expressed in CHO cells (human) (UniProt P80188). As to the kind of experiment: … sandwich CMIA, capture 1-2322-455, detection acridinium-1-903-430; NGAL 600 ng/mL.
In assay [17] the target is Wild-type recombinant human NGAL dimer calibrators with TCEP in the reaction mixture (human) (UniProt P80188). As to the kind of experiment: … sandwich CMIA, capture 1-2322-455, detection acridinium-1-903-430; TCEP in reaction; curve fit with monomer calibrators; target 50 ng/mL.
Assay [18] concerns the target Wild-type recombinant human NGAL monomer expressed in CHO cells (human) (UniProt P80188). As to the kind of experiment: … sandwich CMIA, capture 1-2322-455, detection acridinium-1-903-430; curve fit with monomer calibrators; target 250 ng/mL.
Assay [19] has as its target Wild-type recombinant human NGAL dimer expressed in CHO cells (human) (UniProt P80188). Described as above.
The target is the same in assay [20]. As to the kind of experiment: … sandwich CMIA, capture 1-2322-455, detection acridinium-1-903-430; NGAL Dimer Low, 150 ng/mL dimer calibrator.
For assay [21], the target named is Wild-type recombinant human NGAL monomer expressed in CHO cells (human) (UniProt P80188). In words: … sandwich CMIA, capture 1-2322-455, detection acridinium-1-903-430; monomer calibrator plus TCEP; curve fit with monomer calibrators; target 600 ng/mL.
For assay [22] the target is unchanged. As to the kind of experiment: … sandwich CMIA, capture 1-2322-455, detection acridinium-1-903-430; monomer calibrator plus TCEP; NGAL 1000 ng/mL.
Assay [23] has the same target. As to the kind of experiment: … sandwich CMIA, capture 1-2322-455, detection acridinium-1-903-430; monomer calibrator plus TCEP; NGAL 50 ng/mL.

For “anti-NGAL antibody HYB 211-01 from AntibodyShop A/S, Gentofte, Denmark”, the average % increase of NGAL concentration after reduction of dimers in assay [1] stood at 248%. Further, the RLUs stood at 101000 RLUs in [2], 31500 RLUs in assay [3] and 101000 RLUs in assay [4]. The values for the % Increase due to DTT in assay [5] and in assay [6] were 256% and 247%, respectively. Moreover, the Curve Fit Results in [7] amounted to 5.1 ng/mL; in assay [8], 1.4 ng/mL; in [9], 4.7 ng/mL.

B1: antibody produced by murine hybridoma cell line 1-2322-455 having ATCC Accession No. PTA-8024 (antibody, V domains shown)
VH: EVQLVESGGGLVQPGGSLKLSCAASGFTFNNYYMSWVRQTPERRLEWVAYISSSGGSTYYSDSVRGRFTISRDTARNTLYLQMTSLKSEDTAMYYCARHFGDYSYFDYWGQGTTLTVSS
VL: DIQMTQSPASLSASVGETVTITCRASENFYSYLAWYQQKQGKSPQLLVYNAKTLAEGVPSRFSGSGSGTQFSLKINSLQPEDFGTYYCQHHYDIPLTFGAGTKLELKR
On to B1, for which the Curve Fit Results is 48.2 ng/mL in assay [10]; 13.5 ng/mL in [11]; 591 ng/mL in assay [12]; 173 ng/mL in assay [13]; 4.7 ng/mL in assay [14]; 1.2 ng/mL in [15]. Also, the Curve Fit Results amounted to 24.5 ng/mL in assay [17], 255 ng/mL in assay [18], 71.7 ng/mL in assay [19] and 608 ng/mL in assay [21]. For the same molecule, the RLUs came to 1.51e+06 RLUs in [16], 1.95e+06 RLUs in assay [22] and 241000 RLUs in assay [23]. Further, the NGAL concentration detected in assay [20] came to 33.9 ng/mL.
